Molecular target: human fibrinogen (UniProt P02671)

thrombin resulting from action of Brown snake venom protease
SDS PAGE banding patterns of washed fibrin clots: thrombin resulting from action of Brown snake venom protease converts fibrinogen to fibrin in a similar manner as normal α-thrombin
